Molecular target: SARS-CoV-2 S on pseudovirions (Wuhan Hu-1 / IL1/2020, last 18 amino acids removed) (SARS-CoV-2, UniProt P0DTC2 14-1273)
Assay: cell-based or functional assay

Binder | Mean IC50, pSV neutralization [µg/ml] | Mean IC80, pSV neutralization [µg/ml]
COV_1071 (antibody, V domains shown) VH: QVHLVQSGAEVQKPGASVKISCKASGDTFSESYVHWVRQAPGSGLEWMGIINTRDGDTNYTHQFQDRVMMTTDTSTSTVFLELYSLTSEDTAVYYCARAPDQYFDYWGQGSPVTVSA VL: DIVMTQTPLSSPVTLGQPASISCRSSESLVHSNGNTYLSWLQQRPGQPPKLLIYRVSNRFSGVPDRFSGSGAGTEFTLKISRVEAEDVGVYYCMQARHFPRTFGQGTKVEIKR | ≥ 25 | ≥ 25
COV_1045 (antibody, V domains shown) VH: QVHLVQSGAEVQKPGASVKISCKASGDTLSDSYVHWVRQAPGSGLEWMGIINTRDGDTNYTHQFQDRVMMTTDTSTSTVFLELFSLTSEDTAVYYCARAPDQYFDYWGQGSPVTVSA VL: DIVMTQTPLSSPVTLGQPASISCRSSESLVHSNGNTYLSWLQQRPGQPPRLLIYRVSNRFSGVPDRFSGSGAGTEFTLKISRVEAEDVGVYYCMQARHFPRTFGQGTKVEIK | ≥ 25 | ≥ 25
COV_1087 (antibody, V domains shown) VH: QVQLVQSGAEVQKPGASVKVSCKASGDTFSYHYVHWVRQAPGYGLEWMGIIDPRNADTNYTQKFQGRVTMTTDTSTNTVFLELSSLTSDDTAVYYCARAPDQYFDYWGQGSPVTVSA VL: DIVMTQTPLSSPVTLGQPASISCKSSESLLHSDGNTYLSWLQQRPGQPPRLLIYRVSNRFSGVPDRFSGSGAGTDFTLRISRVEAEDVGVYYCMQATQFPRTFGQGTKVEIKR | ≥ 25 | ≥ 25
COV_1086 (antibody, V domains shown) VH: GAQLLESGGALVQPGGSLRLSCAASGFTFNNYGMGWVRQTPGKGLEWVSTINDNGGNTHYADSVKGRFTISRDNSKHTLYLQMNSLRVEDTALYYCAKDVGGPALFEYWGHGTLVTVSS VL: DIVMTQTPLSSSVTLGQPASISCRSSQSLVHSDGNTYLTWLQQRPGQPPKLLIYKISNRLSGVPDRFSGSGAGTDFTLKISRVEAEDVGVYYCMQATHFPRTFGQGTKLEIKR | ≥ 25 | ≥ 25
COV_1046 (antibody, V domains shown) VH: QVQLVQSGAEVQKPGASVKVSCKASGDTFSYSYVHWVRQAPGHGLEWMGIINPSNGDTNYTQNFQGRVTMTSDTSTSTVLLELSSLTSDDTAVYYCARAPDQYFDYWGQGSPVTVSA VL: DIVMTQTPLSSPVTLGQPASISCRSSESLVHSDGNTYLSWLQQRPGQPPRLLIYRVSNRFSGVPDRFSGSGAGTDFTLKISRVEAEDVGVYYCMQAKDFPRTFGQGTKVEIK | ≥ 25 | ≥ 25
COV_1082 (antibody, V domains shown) VH: EVQLVESGGGLVQPGGSLRLSCAASGFIFNIHGMNWFRQAPGKGLEWISHIGTSGESRDIHYADSVRGRFTISRDNGKHSLYLQMNSLTAEDTAVYFCARGLTNSDLWGQGTLVTVSS VL: EIVMTQTPLSSPVTLGQPASISCRSSESLVHSNGDTYLSWLHQRPGQPPRLLLYKISNRFSGVPDRFSGSGAGTDFTLTISRVEAEDVGLYYCMQATSFPRTFGQGTKVEIKR | ≥ 25 | ≥ 25
COV_2018 (antibody, V domains shown) VH: QVQLVQSGAEVKKPGSSVKVSCKASGGTSSSYAISWVRQAPGQGLEWIGGIIPIFDTTKYAQKFQGRVTITADESTNTAYMEVSSLRSEDTAVYYCAKVADRVGASTGELDYWGQGTLVTVSS VL: EVVLTQSPATLSLSPGERGTLSCRASQSISNYLAWYQQKPGQAPRLLIYNASNRATGVPARFSGSGSGTDFTLTISSLEPEDFAVYYCQQRSNWPPWTFGQGTKVEIK | 0.31 | 1.27
COV_1076 (antibody, V domains shown) VH: QVQLVESGGGLVKPGGSLRLSCAASGFTFSEYSMSWIRQAPGKGLEWVSFIGGSGDYTNYADSVKGRFTISRDNAKNLLYLQMNTLRVEDTAVYYCARRGSANCGDDWWGQGTLVTVSS VL: DIVMTQSPDSLAVSLGERATINCKSSHGVLYRSNNKDHLAWYQQKPGHPPKLLIYWASIRESGVPDRFSGSGSGTDFTLTISGLQAEDVAVYYCQQYYGNPTFGGGTKVEIKR | ≥ 25 | ≥ 25
COV_3019 (antibody, V domains shown) VH: EVQLVESGGGLVQPGQSLRLSCTTSGFNFGDNSMSWVRQAPGKGLEWVGFISPKSHGETTEYAASVKGRFSISRDDSTSIAYLQMSSLKTEDTAIYYCIRDSYGHFPEYGFDIWGQGTMVTVSS VL: DVVLTQTPLFLSVTPGQPASISCKSSRSLIHSDGKTYFYWFLQKAGQPPQLLIYEASNRFSGVPDRFSGSGSGTDFTLHISRVEAEDVGIYYCMHSIQLPRTFGQGTKVELT | ≥ 25 | ≥ 25
COV_3028 (antibody, V domains shown) VH: EVQLVESGGGLVQPGQSLRLSCTTSGFNFGDNSMSWVRQAPGKGLEWVGFISPKSHGGTTEYAASVKGRFSISRDDSTSNAYLQMTSLKTEDTAIYYCIRDSYGHFPEYGFDIWGQGTMVTVSS VL: DVVLTQTPLFLSVTPGQPASISCKSSGSLIHTDGKTYFYWFLQKAGQPPQLLIYEASNRFSGVPDRFSGSGSGTDFTLHISRVEAEDVGIYYCMHSIQLPRTFGQGTKVELT | ≥ 25 | ≥ 25
COV_3031 (antibody, V domains shown) VH: EVQLVESGGGLVQPGRSLRLSCTTSGFNFGDNSMSWVRQAPGKGLEWVGFISNKAYGGTTEYAASVKGRFTISRDDSTSIAYLQMNSLKTEDTAIYYCIRDSYGHFPDYGFDIWGQGTMVTVSS VL: DVVLTQTPLFLSVTPGQPASISCKSSRSLIHSDGKTYFYWFLQKPGQPPQLLIYEASNRFSGVPDRFSGSGSGTDFTLKISRVEAEDVGVYYCMHSIQLPRTFGQGTKVEIT | ≥ 25 | ≥ 25
COV_2066 (antibody, V domains shown) VH: QVQLQESGPGLVKPSETLSLTCSVSGFAITNGFDWGWIRQPPRLGLEWIGTVFHTGVTYSNPSLKSRLSTSVDTSKNQFSMTLNSVTAADTGIYYCVRVQSGLEARAMSFFDYWGQGMLVSVSS VL: DIVMTQSPDSLAVSLGERATINCKSSQNVLYSSNNKNSLAWYQQKPGQPPKVLIYWASTRVSGVPDRFIGSGSGTDFTLTISSLQAEDVAVYYCQQYSSSITFGPGTKVEVKR | ≥ 25 | ≥ 25
COV_1037 (antibody, V domains shown) VH: QVQLVESGGGVVQPGRSLRLSCAASGFTFSSYGMHWVRQAPGKGLEWVAVIWYDGSNKYYADSVKGRFTISRDNSKNTLYLQMNSLRAEDTAVYYCARGGYQLLWHYYYYYGMDVWGQGTTVTVSS VL: not shown | ≥ 25 | ≥ 25
COV_1198 (antibody, V domains shown) VH: EVQLVEAGGDLVQPGGSLRLSCSASGFTFTSYSIHWVRQAPGKGLEYVSTISHGGDITDFADSVKGRFTISRDNSENTVYLQMSSLRPEDTAVYYCARSNFWLDYWGQGTLVTVSS VL: KIVMTQSPATLSVSPGDSATLSCRASQSVSSNLAWYQQKPGQAPRLLISGAFTRATGIPARFSGSGSGTEFTLTISSLQSEDFAVYYCLQYNNWPLYTFGQGTKLEIKR | ≥ 25 | ≥ 25
COV_3000 (antibody, V domains shown) VH: EVQLVESGGGLVQPGRSLRLSCTASGFNFGDNSMSWVRQAPGKGLEWVGFISNRASGGTTEYAASVKGRFTISRDDSKSIAYLQMNSLKTEDTAMYFCTKDSYGHFPNYGFDIWGQGTMVTVSS VL: AVVMTQTPLSLSVTPGQPASISCKSSQSLIHTDGKTYHYWFLQRPGQPPQLLIYDVSNRVSGVPDRFSGSGSGTDFTLKISRVEADDVGVYYCMHSIQLPRAFGQGTKVEIT | ≥ 25 | ≥ 25
COV_3013 (antibody, V domains shown) VH: EVQLVESGGGLVQPGRSLRLSCTTSGFNFGDNSMSWVRQAPGKGLEWVGFISNKAHGATTEYAASVRGRFTISRDDSKSIVYLQMNSLTTEDTAMYYCIRDSYGHFPSYGFDIWGQGTMVTVSS VL: DVVMTQTPLSLSVTPGQPASISCKSSQSLIHSDAKTYFYWFLQKPGQPPQLLIYDVSNRFSGVPDRFSGSGSGTDFTLKISRVEAEDVGVYYCMHSIQLPRTFGQGTKVEIT | ≥ 25 | ≥ 25
COV_3037 (antibody, V domains shown) VH: EVQLVESGGGLVQPGRSLRLSCTASGFNFGDNSMSWVRQAPGKGLEWVGFISNRAYGGTTEYAASVKGRFSISRDDSKSIAYLQMNSLRTEDTAMYFCTKDSYGHFPNYGFDIWGQGTMVIVSS VL: VVVMTQTPLSLSVTPGQPASISCKSSQSLIHTDGKTYHYWFLQRPGQPPQLLIYDVSNRVSGVPDRFSGSGSGTDFTLKISRVEADDVGVYYCMHSIQLPRAFGQGTKVEIT | ≥ 25 | ≥ 25
COV_2172 (SEQ ID NO:442/447) (antibody, V domains shown) VH: EVQLVESGGGVVQPGRSLRLSCAPSGFTFSTYAMHWVRQAPGKGLEWVAVISYDGSIKYYADSVKGRFTISRDNTMNTVFLQMNSLRAEDTAVYFCAKGGERWELFTSFDYWGQGTQVTVSS VL: QSALTQPRSVSGSPGQSVTISCTGTSSDVGGYNYVSWYQQHPGKAPKLMIYDVSKRPSGVPDRFSGSKSGNTASLTISGLQAEDEADYYCCSYAGSYTFVFGGGTKLTVL | 3.73 | ≥ 25
COV_3005 (antibody, V domains shown) VH: EVQLLGFGGGFIRPGGSLRLSCAASGFSFSSYSMSWVRQGPGNGLEWVAGISDRGNSKTYADSVKGRFTVSRDNSKDMLYLELTNLRVEDSATYFCARDWSQSSSSSSPDYWGPGILVTVSS VL: DIQMTQSPSAMSAFVGDRVTITCRASLGVNNYLAWYQQRPGKVPRRLIYAASSLQSGVPSRFRGSGSGTQFTLTITGLQPEDSGTYYCLQHGRYPPVFGPGTRVELI | ≥ 25 | ≥ 25
COV_2108 (antibody, V domains shown) VH: EVQLVESGGGVVQPGRSLRLSCAASGFTFSNYAFHWVRQAPGKGLEWVAVISYDGSIKYSADSVKGRFTISRDNSKNTLYLQMNSLRAEDTAVYYCARDSGDYVDYFDYWGQGTLVTVSS VL: DIQMTQSPSSLSASVGDRVTITCRASQSISSYLNWYQQKPGKAPKLLIHTTSSLQSGVPSRFSGSGSGTGFTLTISSLQPEDFATYYCQQSYSSPPLTFGGGTKVEIK | 13.5 | 15.8

Reference: patent publication US20240101645A1 (HENRY M JACKSON FOUNDATION FOR THE ADVANCEMENT OF MILITARY …, published 2024)
